# Laboratory results as given in patent publication US20230340142A1 (SUZHOU NEOLOGICS BIOSCIENCE, published 2023).
# Numbering of substitutions follows the chain as printed.
# B1: Clone D (antibody, V domains shown)
# VH: EVQLQQSGPELVKPGASMKISCKASGYSFTGYTMNWVKQSHGKNLEWIGLIIPYNGGISYNQKFKDKATLTVDKSSSTAYMELLSLTSEDSAVYYCASLITTAPRDSMDYWGQGTSVTVSS
# VL: DIQMTQTTSSLSASLGDRVTISCRASQDISNYLNWYQQKPDGSVKLLIYYTSKLHSGVPSRFSGSGSGTDYSLTISNLEQEDIATYFCQQGDALPWTFGGGTKLEIK
# notes: Mouse hybridoma clone
# B2: Clone N (antibody, V domains shown)
# VH: B1 VH with Y54H, I58T, S77R, I100M
# VL: B1 VL with S43T, K53R, E79D, D92A, A93T
# notes: Mouse hybridoma clone
# B3: Clone C (antibody, V domains shown)
# VH: EVQLQQSGADLVKPGASVKLSCTASGFNIKDTYMHWVKQRPEQGLEWIGRIDPANGNTKYDPKFQGKATITTDTSSNTAYLQLSSLTSEDTAVYYCARGLGRWFAYWGQGTLVTVSA
# VL: DIVMTQSHKFMSTSVGDRVSITCKASQDVSNAVAWYQQKPGQSPELLIYSASNRYTGVPDRFTGSGSGTDFTFTISSVQAEDLAVYYCQQHDSTPLTFGAGTKLELK
# notes: Mouse hybridoma clone
# B4: Clone B (antibody, V domains shown)
# VH: QGQMQQSGAELVKPGASVKLSCKTSGFTFSSSYISWLKQKPGQSLEWIAWIYAGTGGTSYNQKFTGKAQLTVDTPSSTAYMQFSSLTTEDSAIYYCARHEGKYWYFDVWGAGTTVTVSS
# VL: QILLTQSPAIMSASPGEKVTMTCSASSSVSYVHWYQQKPGSSPKPWIYDTSNLASGFPARFSGSGSGTSYSLIISSMEAEDAATYYCHQRSSYPWTFGGGTKLEIK
# notes: Mouse hybridoma clone
# Target: T1, human PD-L1 (human, UniProt Q9NZQ7 19-238, limits assumed)
# T1 construct: also called hPD-L1
# Assay: flow cytometry on BT20 cells (PD-L1 on the cell surface), PE-labelled secondary antibody, MFI
# Experimental: (§1) Glycosylation differences in cancer cell lines of different tissue origin may affect the binding affinity between PD-L1 antibody and PD-L1. In this study, five cell lines were selected, namely BT20(Breast), mb-231 (Breast), A375(Melanoma), HCC827(Lung), and RKO(Colon). Cells were re-suspended with FACS buffer (1%BSA in PBS), and 50 µl cell suspension per well was added to the 96-well U-bottom plate (Corning, catalog#3795). The purified antibody to be tested was diluted in gradient, then 50 µl was added to each well and incubated at 4° C. for 1 hour. After washing by FACS buffer for three times, the cells were incubated with PE-labeled fluorescent secondary antibody and incubated at 4° C. for half an hour. Cells were washed three times with FACS buffer and resuspended to 200 uL/ well. The fluorescence signal was detected using Canto II flow cytometry (BD).
# T1 sequence (Q9NZQ7 19-238 limits assumed): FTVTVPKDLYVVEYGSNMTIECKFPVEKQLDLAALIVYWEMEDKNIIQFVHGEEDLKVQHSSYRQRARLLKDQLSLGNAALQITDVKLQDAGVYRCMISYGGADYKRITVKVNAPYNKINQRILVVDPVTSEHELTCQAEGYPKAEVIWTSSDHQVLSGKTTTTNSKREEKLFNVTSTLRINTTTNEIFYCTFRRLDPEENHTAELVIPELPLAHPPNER
row,EC50 (read off the curve),Binder
1,~0.01 µg/mL,B1
2,~0.007 µg/mL,B2
3,~0.02 µg/mL,B3

# Target: T1, human PD-L1
# Assay: flow cytometry on RKO cells (PD-L1 on the cell surface), PE-labelled secondary antibody, MFI
# Experimental: as §1
row,EC50 (read off the curve),Binder
1,~0.02 µg/mL,B1
2,~0.03 µg/mL,B2
3,~0.04 µg/mL,B4
4,~0.02 µg/mL,B3

# Target: T2, human PD-L1 recombinant protein, PD-L1-his (human, UniProt Q9NZQ7 19-238)
# T2 construct: also called PD-L1 with a his-tag; not shown: his-tag
# Assay: Gator BLI; antibody on HFC sensor, PD-L1-his in solution; 1:1 fit
# Experimental: PD-L1 antibodies were coupled to the surface of the HFC sensor (Probe Life), and human PD-L1 recombinant protein as the mobile phase was 2 times gradient diluted. The association and dissociation between PD-L1 protein and the antibodies on the surface of the sensor were measured. Specifically, the HFC sensor was prewetted in SD buffer (PBS containing 0.02% Tween-20 and 0.2% BSA) for 5-10 minutes, and then incubated in SD buffer containing antibodies for 1-3 minutes, allowing antibodies to be coupled to the sensor surface. The antibody-coupled HFC sensor was incubated in the SD buffer solution for 1 minute, and then incubated in the buffer solution containing different concentrations of PD-L1-his for 1-5 minutes to measure the association of PD-L1 protein to captured antibody. Finally, the sensor combining the antigen and antibody was incubated in SD buffer for 2-10 minutes to measure PD-L1 protein’s dissociation from sensor. The measured data were fitted using a 1:1 model, and the association rate (Kon) and the dissociation rate (Koff) were calculated. The equilibrium dissociation constant (kD) was calculated by the ratio Koff/Kon.
# T2 sequence (Q9NZQ7 19-238 limits assumed): as above
Kd,koff,kon,Binder
3.68 nM,0.000826 s⁻¹,225000 M⁻¹ s⁻¹,B1
3.52 nM,0.000582 s⁻¹,165000 M⁻¹ s⁻¹,B2
5.94 nM,0.0006 s⁻¹,101000 M⁻¹ s⁻¹,B4
4.32 nM,0.00101 s⁻¹,234000 M⁻¹ s⁻¹,B3

# Target: T1, human PD-L1
# Assay: flow cytometry on HCC827 cells (PD-L1 on the cell surface), PE-labelled secondary antibody, MFI
# Experimental: as §1
row,EC50 (read off the curve),Binder
1,~0.02 µg/mL,B1
2,~0.02 µg/mL,B2
3,~0.05 µg/mL,B4
4,~0.03 µg/mL,B3

# Target: T1, human PD-L1
# Assay: flow cytometry on MDA-MB-231 cells (PD-L1 on the cell surface), PE-labelled secondary antibody, MFI
# Experimental: as §1
row,EC50 (read off the curve),Binder
1,~0.03 µg/mL,B1
2,~0.03 µg/mL,B2
3,~0.06 µg/mL,B4
4,~0.03 µg/mL,B3
